The values below come from patent US6855515B1, “Autoantigenic fragments, methods and assays” (Merck & Co., Inc., priority 1998, dated 2005).

“Also recorded” adds a separate entry of the source.

Series [1] addresses T1, granzyme B (Homo sapiens, UniProt P10144).
T1 construct: Some of these preparations were used for the further purification of granzyme B (Tschopp, 1994); endogenous in cells; host or cells: YT cells (human NK cell line), cytoplasmic granules
Nature of the series: In vitro cleavage of substrates by purified granzyme B, kcat/Km from densitometry. The format is biochemical. The following applies: in the presence of 10 μg/ml DNA. Here is the method:
cDNAs for caspase-3, caspase-7, NuMA and PARP were used to drive the synthesis of [^35S]methionine-labeled proteins by coupled transcription/translation in rabbit reticulocyte lysates. For all purified substrates, cleavage reactions were performed in buffer consisting of 50 mM Hepes pH 7.4, 10% sucrose and 5 mM DTT in the presence of the granzyme B concentrations indicated in FIG. 1. After incubation at 37° C. for 15 min, reactions were terminated and samples were electrophoresed on 10% (DNA-PKcs, NuMA), 12% (PARP) or 15% (caspases 3 and 7) SDS-polyacrylamide gels. Radiolabeled proteins and their fragments were visualized by fluorography. Intact and cleaved DNA-PKcs were visualized by immunoblotting with monoclonal antibody 18-2 (Casciola-Rosen et al., 1995).
Catalytic constant (kcat/km) values were calculated essentially as described (Casciola-Rosen et al., 1996). Briefly, subsaturating substrate concentrations were used in each in vitro reaction, and product appearance was assumed to be a first order process. […] Several appropriate densitometry systems are available, e.g. PDI Discovery System, with Quantity One Software, Protein Databases, Inc., (Huntington Station, N.Y.). kcat/Km values were calculated by fitting the dose-response data to the first order rate equation: percent substrate cleavage=100*((1^-e-((kcat*[E]/Km)*time)). […]

Series [2] relates to SP1. Kind of series: DNA-PKcs kinase assay (SP1 phosphorylation). Format: biochemical. The note with it: 12.5 nM granzyme B, 13.5 min, 37° C., then DNA, ATP. Here is the method:
Kinase assays were performed on intact DNA-PKcs or DNA-PKcs that had first been cleaved by granzyme B as follows. Reaction mixtures containing 10 mM Hepes pH 7.4, 2 mM MgCl2, 10 mM KCl, 2.7 mM DTT, and 50 ng DNA-PKcs in the absence or presence of 12.5 nM purified granzyme B, were incubated for 13.5 min at 37° C. Kinase reactions were subsequently initiated by adding 100 ng SP1 and 150 μM ATP containing 1.5 μCi [^32P]-ATP (3000 Ci/mmol), in the absence or presence of 10 μg/ml sheared herring sperm DNA (Promega). Samples were incubated at 37° C. for 10 min (well within the linear range of the assay, data not shown), before terminating the reactions by adding SDS gel buffer and boiling. After electrophoresing the samples on 8% SDS-PAGE, SP1 phosphorylation was detected by autoradiography, and quantitated by densitometry. Cleaved status of the kinase was confirmed in parallel by immunoblotting.

Series [3] deals with SP1. The note with it: Casciola-Rosen et al., 1996; cited from earlier work.

T1 sequence (P10144 21-247): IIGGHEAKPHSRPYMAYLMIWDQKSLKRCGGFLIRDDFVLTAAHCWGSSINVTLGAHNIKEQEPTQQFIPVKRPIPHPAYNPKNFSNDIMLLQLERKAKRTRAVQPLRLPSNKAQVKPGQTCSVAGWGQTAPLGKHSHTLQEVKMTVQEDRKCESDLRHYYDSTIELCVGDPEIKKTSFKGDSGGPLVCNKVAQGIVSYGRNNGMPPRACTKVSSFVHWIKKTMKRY

In the case of “DNA-dependent protein kinase catalytic subunit [DNA-PKCS]”, the “decrease of DNA-PKcs cleavage by granzyme B” value in series [1] is “approximately 90%”. The “kinase activity of DNA-PKcs after cleavage by granzyme B” value in series [2] is listed as “entirely abolished; also recorded: completely abrogates”. Besides, the “kinase activity of DNA-PKcs after caspase-3 cleavage” value in series [3] is recorded as “approximately 60 % of control levels”.
